# Experimental data: patent EP3459964A1, “GALECTIN-1 BINDING PEPTIDES AND USE THEREOF FOR DIAGNOSTIC AND THERAPEUTIC PURPOSE” (Université de Mons, priority 2017, dated 2019)
# Where no end group is shown, it is not given here.
# Legend:
# Human gal-1 = target: T1, Human gal-1 (Homo sapiens, UniProt P09382); assay: Gal-1 binding of the isolated phage clones (ELISA), affinity constants against gal-1 or control proteins (HSA, collagen); settings: phage clone expressing the peptide; for Affinity 2 Ka^Gal-1 / Ka^Coll / Affinity 1 Ka^Gal-1 / Ka^HSA: Ka = 1/K*d; for Affinity 2 Ka^Gal-1 / Ka^Coll: Coll = collagen; for Affinity 1 Ka^Gal-1 / Ka^HSA: one representative clone per sequence; for Affinity 3 Ka^Gal-1/ ((Ka^HSA + Ka^Coll)/2): specific affinity vs mean of control proteins
# T1 construct: purchased Peprotech
# T1 sequence (P09382 whole entry): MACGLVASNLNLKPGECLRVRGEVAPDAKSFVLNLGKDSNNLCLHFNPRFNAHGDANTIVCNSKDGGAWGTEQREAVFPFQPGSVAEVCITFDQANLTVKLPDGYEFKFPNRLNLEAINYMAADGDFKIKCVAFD
# Experimental: Human gal-1 (Peprotech) and control proteins (HSA and collagen) were immobilized on 96-well ELISA plates at a concentration of 10 µg/mL in NaHCO3 0.1 M, pH 8.6, overnight at 4°C. The wells were then blocked with Protein-Free Blocking Buffer (PFBB, Thermo Fisher Scientific, p/a Perbio Science BVBA, Aalst, Belgium), 1 hour at room temperature. Fifty clones issued from each phage display experiment were first screened at one concentration (5 x 10^11 phages/100 µL for PDE1; 10^11 phages/100 µL for PDE2) prepared in Tris buffered saline (TBS: 50 mM Tris-HCl, 150 mM NaCl, pH 7.5) supplemented with 0.5% Tween-20 (TBST). The clones were incubated for 2 hours at room temperature, under mild agitation. To determine the apparent dissociation constant (K*d) of the selected clones, ten serial dilutions of phages (generally ranging from 5x10^12 to 10^7 phages/100 µL) were incubated with gal-1 or control proteins in the same conditions as for the first clones' screening. The bound phages were detected by an incubation (1 hour, room temperature) with horseradish peroxidase (HRP)-conjugated anti-M13 monoclonal antibody (Amersham Pharmacia Biotech Benelux, Roosendaal, The Netherlands) diluted 1:5000 in TBS supplemented with 0.5% BSA. After each incubation step, the wells were rinsed with an automated microplate washer (Beckman Coulter, Analis, Suarlée, Belgium). Finally, the wells were filled with 200 µL/well of 2,2'-azino-bis(3-ethylbenzothiazoline-6-sulphonic acid (ABTS, 22 mg) diammonium salt (Sigma-Aldrich) solution prepared in 50 mM sodium citrate pH 4.0 completed with 0.05% H2O2. The optical density (OD) was measured (405 nm, differential filter: 630 nm) using a microplate reader (StatFax-2100, Awareness Technology, Fisher Bioblock Scientific, Tournai, Belgium).
# [1] = Circular dichroism study of secondary structure in distilled water; type: physicochemical; settings: non-biotinylated peptides, 1 mM in distilled water, 20 °C and 37 °C
# Experimental: Non-biotinylated peptides dissolved in distilled water at 1 mM were used for structure analysis. Circular Dichroism (CD) spectra were recorded using a ChirascanTM Plus CD Spectrometer (Applied Photophysics Inc., Leatherhead, United Kingdom). The measurements were carried out using 1 mm quartz Suprasil cells from Hellma Analytics (Müllheim, Germany). The spectra were recorded between 180 and 350 nm, with a bandwidth of 0.5 nm, time per point 2 s and three repetitions, both at 20 °C and 37 °C. The CD RMS (Root Mean Square) noise is around 0.03 mdeg at 180 nm. The aqueous solution reference spectra were used as baselines and were automatically subtracted from the CD spectra of the samples.
# [2] = target: T2, gal-1 expressed by human tumor tissues (Homo sapiens, UniProt P09382); assay: Binding of biotinylated peptides to human thyroid biopsies (immunohistochemistry, ImageJ semi-quantitative analysis); settings: for staining produced by peptides in healthy thyroids and thyroid adenomas compared to papillary, follicular and anaplastic thyroid cancer: ImageJ analysis of immunohistochemistry microphotographs; for targeting of the papillary areas: biotinylated peptides 20 µM, human papillary thyroid cancer biopsy sections
# T2 construct: from tissue; host or cells: paraffin-embedded human thyroid biopsy sections (healthy, inflammatory, adenoma, papillary, follicular, anaplastic)
# T2 sequence (P09382 whole entry): as above
# Experimental: Immunohistochemistry evaluation was performed on 5 µm thick sections mounted on silane-coated glass slides. The paraffin-embedded tissue specimens were deparaffinized and rehydrated. After unmasking the epitopes in citrate buffer pH 6.0, the endogenous peroxidase activity was blocked with 0.7% H2O2. Sections were then blocked with streptavidin - biotin blocking kit (Vector Labconsult) and with 0.5% casein (Sigma-Aldrich).
# The binding of biotinylated peptides to tumor biopsies was validated by using a similar protocol. However, no epitope unmasking was performed, while casein blocking was replaced by PFBB. Endogenous peroxidases were blocked with 1% H2O2. The biotinylated peptides (stock prepared in distilled water) were diluted in TBS at a concentration of 20 µM and incubated with tumor biopsies overnight at 4 °C. The bound peptides were then detected with 5 µg/mL of anti-biotin antibody made in goat (Vector Labconsult) and with 1 µg/mL of biotinylated anti-goat IgG made in horse (both from Vector Labconsult) both diluted in TBS completed with 0.5% BSA […]. After incubation with Vectastain ABC kit (Vector Labconsult), the staining with DAB/H2O2 and Hemalun counterstaining were performed as described above.
# Gal-1 staining on immunohistochemistry microphotographs (DM2000 Leica microscope equipped with a DFC 425C camera, Leica Microsystems) was semi-quantitatively analyzed by ImageJ software (National Institutes of Health, USA). The expression of gal-1 was compared in 5 cases of healthy thyroid, 2 cases of inflammatory thyroid (patients with goiter), 6 cases of thyroid adenoma, 6 cases of papillary thyroid cancer, 4 cases of follicular variant of papillary thyroid cancer and 6 cases of anaplastic cancer. The binding of peptides 1 and 7 was compared in 5 cases of healthy thyroid, 2 cases of inflammatory thyroid, 6 cases of thyroid adenoma, 3 cases of papillary thyroid cancer, 3 cases of follicular thyroid cancer and 6 cases of anaplastic thyroid cancer. The total area occupied by brown stained pixels was determined after thresholding the background staining on blank histological slices, where the primary antibody was excluded. The total stained area is then automatically generated after pixel segmentation.
# TPC-1 cells = assay: Cell adhesion assay: TPC-1 cell adhesion to immobilized gal-1; type: cell-based, human; settings: 500 nM, TPC-1 adhesion to gal-1, non-biotinylated peptides
# Experimental: Gal-1 (Peprotech) was immobilized on 96-well culture plates at 20 µg/mL overnight at 4°C. After blocking with 0.1% BSA prepared in phosphate buffered saline (PBS, per liter: 8 g NaCl, 0.2 g KCl, 2.31 g Na2HPO4 × 12 H2O 0.2 g KH2PO4, pH 7.4), non-biotinylated peptides (P1, P7 or P1Scr) diluted in RPMI 1640 culture medium at 0.5 µM or 50 µM were pre-incubated with gal-1 for 2 hours. In the meanwhile, TPC-1 cells (10^5 cells/well) were pre-incubated with the desired concentration of peptides in RPMI 1640 culture medium for 30 minutes before seeding them into the wells. The cells were then incubated (37 °C, 5% CO2) with gal-1 immobilized on wells for one hour. The negative control cells were incubated with RPMI 1640 culture medium alone. After washing steps and plate centrifugation between them, cells were fixed 15 minutes with buffered 4% formalin (from Sigma-Aldrich) and washed before staining with 1% crystal violet. Wells were rinsed and crystal violet was solubilized with dimethyl sulfoxide (DMSO, Sigma-Aldrich) before measuring absorbance at 570 nm (differential filter at 630 nm) with a microplate reader. The percentage of adherent cells was obtained by calculating the percentage ratio of OD measured for TPC-1 incubated with peptides over the OD of negative control cells.
Sequence,Affinity 2 Ka^Gal-1 / Ka^Coll (Human gal-1),Affinity 1 Ka^Gal-1 / Ka^HSA (Human gal-1),Affinity 3 Ka^Gal-1/ ((Ka^HSA + Ka^Coll)/2) (Human gal-1),conformation in aqueous solution (CD signature) [1],"staining produced by peptides in healthy thyroids and thyroid adenomas compared to papillary, follicular and anaplastic thyroid cancer [2]",targeting of the papillary areas [2],decrease of cell adhesion (TPC-1 cells)
DWSSWVYRDPQT [Peptide P8],27.92,1.23,2.36,–,–,–,–
"HLWGWLYAPSFQ [Peptide P1, HLWGWLYAPSFQ]",–,–,–,random coil state,weaker,efficient targeting of the papillary areas,around 25%
HYSWSWIAYSPG [Peptide P3],1.35,0.99,1.14,–,–,–,–
SVYVEISWVRTM [Peptide P6],1.17,1.17,1.17,–,–,–,–
VHWDFRQWWQPS [Peptide P4],1.93,1.18,1.47,–,–,–,–
YHHSGPYAGPMW [Peptide P5],1.58·10^13,1.25,2.50,–,–,–,–
"YSWHIDIVAPRN [Peptide P7, YSWHIDIVAPRN]",infinite ratio,infinite ratio,infinite ratio,random coil state,weaker,efficient targeting of the papillary areas,~30%
YTFHFDIFQPHF [Peptide P2],8.15,121.56,25.66,–,–,–,–
